# B1: ATP-sensitive inward rectifier potassium channel 10 (Homo sapiens), P78508 (parent)
# chain: MTSVAKVYYSQTTQTESRPLMGPGIRRRRVLTKDGRSNVRMEHIADKRFLYLKDLWTTFIDMQWRYKLLLFSATFAGTWFLFGVVWYLVAVAHGDLLELDPPANHTPCVVQVHTLTGAFLFSLESQTTIGYGFRYISEECPLAIVLLIAQLVLTTILEIFITGTFLAKIARPKKRAETIRFSQHAVVASHNGKPCLMIRVANMRKSLLIGCQVTGKLLQTHQTKEGENIRLNQVNVTFQVDTASDSPFLILPLTFYHVVDETSPLKDLPLRSGEGDFELVLILSGTVESTSATCQVRTSYLPEEILWGYEFTPAISLSASGKYIADFSLFDQVVKVASPSGLRDSTVRYGDPEKLKLEESLREQAEKEGSALSVRISNV
# Variants of: B1
# Conditions: with MAGI1, A0A8I3NPD4
# Chain of MAGI1, A0A8I3NPD4 (A0A8I3NPD4 entry or part of it): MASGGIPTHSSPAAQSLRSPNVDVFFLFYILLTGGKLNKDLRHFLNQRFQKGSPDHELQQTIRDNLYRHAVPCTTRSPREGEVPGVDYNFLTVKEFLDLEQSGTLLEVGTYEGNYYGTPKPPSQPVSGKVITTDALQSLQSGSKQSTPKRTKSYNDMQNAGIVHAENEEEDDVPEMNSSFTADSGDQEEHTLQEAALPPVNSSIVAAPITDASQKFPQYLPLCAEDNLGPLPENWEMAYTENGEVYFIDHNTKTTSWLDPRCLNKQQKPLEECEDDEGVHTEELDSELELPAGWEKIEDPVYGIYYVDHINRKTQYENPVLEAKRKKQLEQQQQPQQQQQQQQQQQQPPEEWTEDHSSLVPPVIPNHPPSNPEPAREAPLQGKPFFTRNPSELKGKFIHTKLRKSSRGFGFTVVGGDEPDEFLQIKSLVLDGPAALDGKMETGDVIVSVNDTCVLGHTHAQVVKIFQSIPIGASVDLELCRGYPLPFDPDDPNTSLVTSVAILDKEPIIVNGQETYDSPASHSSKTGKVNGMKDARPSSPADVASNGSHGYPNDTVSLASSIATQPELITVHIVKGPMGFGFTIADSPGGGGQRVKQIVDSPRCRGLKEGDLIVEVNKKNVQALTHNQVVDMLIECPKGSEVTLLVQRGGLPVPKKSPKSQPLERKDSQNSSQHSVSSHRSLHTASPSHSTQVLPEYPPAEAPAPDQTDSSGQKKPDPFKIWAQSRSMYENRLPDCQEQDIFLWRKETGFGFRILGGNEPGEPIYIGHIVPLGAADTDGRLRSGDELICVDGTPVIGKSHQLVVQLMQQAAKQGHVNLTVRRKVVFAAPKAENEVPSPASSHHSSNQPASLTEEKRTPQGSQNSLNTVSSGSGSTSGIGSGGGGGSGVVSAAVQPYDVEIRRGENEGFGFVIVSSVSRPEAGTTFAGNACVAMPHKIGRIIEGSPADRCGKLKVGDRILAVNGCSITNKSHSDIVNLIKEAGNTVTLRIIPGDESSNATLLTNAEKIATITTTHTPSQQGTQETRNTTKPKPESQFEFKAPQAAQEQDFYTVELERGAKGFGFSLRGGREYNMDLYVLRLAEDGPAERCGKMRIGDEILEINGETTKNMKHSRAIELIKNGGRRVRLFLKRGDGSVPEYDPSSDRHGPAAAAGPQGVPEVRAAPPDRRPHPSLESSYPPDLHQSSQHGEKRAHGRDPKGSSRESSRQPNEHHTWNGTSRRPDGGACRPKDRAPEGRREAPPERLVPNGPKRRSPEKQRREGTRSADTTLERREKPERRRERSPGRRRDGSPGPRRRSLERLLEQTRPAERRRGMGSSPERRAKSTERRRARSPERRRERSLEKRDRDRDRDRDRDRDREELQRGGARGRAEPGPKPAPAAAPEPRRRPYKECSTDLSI
row,Variant,effect of a mutation on the interaction
1,A167V,decreasing interaction

# From IntAct's records for PubMed 24561201
